Results: article PMC5253702

Biological target: B/Victoria/504/2000 HA ectodomain (residues 1–530), soluble, His-tagged (influenza B virus B/Victoria/504/2000)
Assay: negative stain EM reconstruction

For “B/Victoria/504/2000 HA ectodomain (residues 1–530), soluble, His-tagged (domain or fragment)”, the stoichiometry N was 3.
